In patent publication US20260274955A1 (JANUX THERAPEUTICS, published 2026):

B1: Phage-550 (peptide)
peptide: YCDGHAPEYLTKCL
notes: on phage, pIII fusion; cell for position 6 is missing in the printed row

molecular target: T1, anti-CD28 Fab (SEQ ID NOs: 202, 203); assay: phage ELISA on captured Fab;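 also: ELISA with clonal phage supernatants added to wells preincubated with CD28 antigen or with blocking buffer only, bound phage detected by HRP-conjugated anti-M13 antibody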
T1 construct: biotinylated and captured on neutravidin coated plates in the phage ELISA
T1 sequence (VH, as listed by the source, chain 1 of 2): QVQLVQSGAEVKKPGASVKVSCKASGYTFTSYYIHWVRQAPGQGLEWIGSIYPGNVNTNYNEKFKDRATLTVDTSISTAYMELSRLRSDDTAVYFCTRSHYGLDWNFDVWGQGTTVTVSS
T1 sequence (VL, as listed by the source, chain 2 of 2): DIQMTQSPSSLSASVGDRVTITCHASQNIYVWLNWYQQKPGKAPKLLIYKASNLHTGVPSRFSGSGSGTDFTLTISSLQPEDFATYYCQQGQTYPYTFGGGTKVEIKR
Method: (§1) Clonal phage were harvested as crude supernatants and screened via standard ELISAs. […] Prior to the addition of clonal phage, wells were incubated with blocking buffer and CD28 antigen or blocking buffer alone. Without washing or aspirating, clonal phage supernatants were then added to the wells and incubated for a short time. Wells were then washed followed by detection of bound phage using a horse radish conjugated anti-M13 antibody.

| Binder | Anti-CD28 Fab (SEQ ID NOs: 202, 203) signal |
| --- | --- |
| YCDGHLSEYMSKCL (on phage, pIII fusion) [Phage-498] | 1.62 |
| YCAGHVAEYMAKCL (on phage, pIII fusion) [Phage-483] | 1.64 |
| YCDGHNGVYWWKCI (on phage, pIII fusion) [Phage-549] | 1.53 |
| YCDGHSPEYMLKCL (on phage, pIII fusion) [Phage-505] | 1.61 |
| YCEGHLGIYMTKCL (on phage, pIII fusion) [Phage-530] | 1.57 |
| YCAGHAPEYMSKCL (on phage, pIII fusion) [Phage-489] | 1.63 |
| YCDGHGPQYIQKCL (on phage, pIII fusion) [Phage-479] | 1.64 |
| YCDGHSPQYIQKCL (on phage, pIII fusion) [Phage-566] | 1.5 |
| YCAGHSLEYMQKCL (on phage, pIII fusion) [Phage-487] | 1.63 |
| YCEGHSEEFMSKCL (on phage, pIII fusion) [Phage-532] | 1.57 |
| YCEGHADEYMWKCL (on phage, pIII fusion) [Phage-520] | 1.59 |
| YCDGHSEAFMQKCL (on phage, pIII fusion) [Phage-495] | 1.63 |
| YCEGHLPQYMVKCL (on phage, pIII fusion) [Phage-527] | 1.58 |
| YCEGHTAEHMQKCL (on phage, pIII fusion) [Phage-482] | 1.64 |
| YCDGHAEEYLLKCL (on phage, pIII fusion) [Phage-529] | 1.57 |
| YCEGHSVEYIGKCL (on phage, pIII fusion) [Phage-521] | 1.59 |
| YCEGHIAEYMQKCL (on phage, pIII fusion) [Phage-480] | 1.64 |
| B1 | 1.53 |
| YCDGHAKEYIQKCL (on phage, pIII fusion) [Phage-526] | 1.58 |
| YCEGHMWEYMAKCL (on phage, pIII fusion) [Phage-485] | 1.64 |
| YCQGHADEYMAKCL (on phage, pIII fusion) [Phage-528] | 1.58 |
| YCAGHLPEYMGKCL (on phage, pIII fusion) [Phage-496] | 1.63 |
| YCAGHSSEYIPKCL (on phage, pIII fusion) [Phage-524] | 1.58 |
| YCDGHSWQYMWKCI (on phage, pIII fusion) [Phage-531] | 1.57 |
| YCEGHVTEYMQKCL (on phage, pIII fusion) [Phage-499] | 1.62 |
| YCEGHLGQYMEKCL (on phage, pIII fusion) [Phage-548] | 1.54 |

| Binder | Anti-CD28 Fab (SEQ ID NOs: 202, 203) signal |
| --- | --- |
| YCDGHLLEYKAKCL (on phage, pIII fusion) [Phage-503] | 1.62 |
| YCEGHSWVYMAKCL (on phage, pIII fusion) [Phage-493] | 1.63 |
| YCEGHSAQYMHKCL (on phage, pIII fusion) [Phage-481] | 1.64 |
| YCEGHSWEHMEKCL (on phage, pIII fusion) [Phage-523] | 1.58 |
| YCDGHSLLYLSKCL (on phage, pIII fusion) [Phage-472] | 1.65 |
| YCEGHLEQYMQKCL (on phage, pIII fusion) [Phage-492] | 1.63 |
| YCDGHELKYMLKCL (on phage, pIII fusion) [Phage-502] | 1.62 |
| YCEGHLAVYMEKCL (on phage, pIII fusion) [Phage-473] | 1.65 |
| YCDGHSAEYLLKCL (on phage, pIII fusion) [Phage-478] | 1.65 |
| YCDGHSAEYLSKCL (on phage, pIII fusion) [Phage-561] | 1.51 |
| YCDGHDVEYMAKCL (on phage, pIII fusion) [Phage-470] | 1.66 |
| YCDGHRVEYMAKCL (on phage, pIII fusion) [Phage-522] | 1.58 |
| YCDGHDVEYMSKCL (on phage, pIII fusion) [Phage-486] | 1.64 |
| YCEGHSSEYMWKCL (on phage, pIII fusion) [Phage-490] | 1.63 |
| YCEGHDLIYMWKCL (on phage, pIII fusion) [Phage-488] | 1.63 |
| YCEGHSLMYMWKCL (on phage, pIII fusion) [Phage-474] | 1.65 |
| YCEGHSLMYMAKCL (on phage, pIII fusion) [Phage-563] | 1.5 |
| YCAGHLAIYMSKCL (on phage, pIII fusion) [Phage-497] | 1.63 |
| YCDGHLDVYRAKCL (on phage, pIII fusion) [Phage-491] | 1.63 |
| YCDGHAQEYRLKCL (on phage, pIII fusion) [Phage-477] | 1.65 |
| YCAGHSPQYMEKCL (on phage, pIII fusion) [Phage-506] | 1.61 |
| YCEGHSIQYMTKCL (on phage, pIII fusion) [Phage-551] | 1.53 |
| YCEGHAPVYMFKCL (on phage, pIII fusion) [Phage-547] | 1.54 |
| YCDGHLPQYLQKCT (on phage, pIII fusion) [Phage-525] | 1.58 |
| YCAGHAAEYMTKCL (on phage, pIII fusion) [Phage-475] | 1.65 |
| YCDGHATEYMQKCL (on phage, pIII fusion) [Phage-484] | 1.64 |

molecular target: T1, anti-CD28 Fab (SEQ ID NOs: 202, 203); assay: phage ELISA on captured Fab, wells pre-incubated with CD28 antigen (competitor);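 also: clonal phage ELISA with wells pretreated with CD28 plus blocking buffer before phage addition, bound phage detected by HRP-linked anti-M13 antibody, reference wells got blocking buffer only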
Method: as §1

| Binder | Anti-CD28 Fab signal in the presence of CD28 |
| --- | --- |
| YCDGHLSEYMSKCL (on phage, pIII fusion) [Phage-498] | 0.06 |
| YCAGHVAEYMAKCL (on phage, pIII fusion) [Phage-483] | 0.06 |
| YCDGHNGVYWWKCI (on phage, pIII fusion) [Phage-549] | 0.07 |
| YCDGHSPEYMLKCL (on phage, pIII fusion) [Phage-505] | 0.07 |
| YCEGHLGIYMTKCL (on phage, pIII fusion) [Phage-530] | 0.08 |
| YCAGHAPEYMSKCL (on phage, pIII fusion) [Phage-489] | 0.05 |
| YCDGHGPQYIQKCL (on phage, pIII fusion) [Phage-479] | 0.07 |
| YCDGHSPQYIQKCL (on phage, pIII fusion) [Phage-566] | 0.07 |
| YCAGHSLEYMQKCL (on phage, pIII fusion) [Phage-487] | 0.07 |
| YCEGHSEEFMSKCL (on phage, pIII fusion) [Phage-532] | 0.08 |
| YCEGHADEYMWKCL (on phage, pIII fusion) [Phage-520] | 0.06 |
| YCDGHSEAFMQKCL (on phage, pIII fusion) [Phage-495] | 0.07 |
| YCEGHLPQYMVKCL (on phage, pIII fusion) [Phage-527] | 0.07 |
| YCEGHTAEHMQKCL (on phage, pIII fusion) [Phage-482] | 0.05 |
| YCDGHAEEYLLKCL (on phage, pIII fusion) [Phage-529] | 0.05 |
| YCEGHSVEYIGKCL (on phage, pIII fusion) [Phage-521] | 0.07 |
| YCEGHIAEYMQKCL (on phage, pIII fusion) [Phage-480] | 0.13 |
| B1 | 0.06 |
| YCDGHAKEYIQKCL (on phage, pIII fusion) [Phage-526] | 0.06 |
| YCEGHMWEYMAKCL (on phage, pIII fusion) [Phage-485] | 0.13 |
| YCQGHADEYMAKCL (on phage, pIII fusion) [Phage-528] | 0.08 |
| YCAGHLPEYMGKCL (on phage, pIII fusion) [Phage-496] | 0.07 |
| YCAGHSSEYIPKCL (on phage, pIII fusion) [Phage-524] | 0.09 |
| YCDGHSWQYMWKCI (on phage, pIII fusion) [Phage-531] | 0.09 |
| YCEGHVTEYMQKCL (on phage, pIII fusion) [Phage-499] | 0.08 |
| YCEGHLGQYMEKCL (on phage, pIII fusion) [Phage-548] | 0.08 |

| Binder | Anti-CD28 Fab signal in the presence of CD28 |
| --- | --- |
| YCDGHLLEYKAKCL (on phage, pIII fusion) [Phage-503] | 0.07 |
| YCEGHSWVYMAKCL (on phage, pIII fusion) [Phage-493] | 0.07 |
| YCEGHSAQYMHKCL (on phage, pIII fusion) [Phage-481] | 0.06 |
| YCEGHSWEHMEKCL (on phage, pIII fusion) [Phage-523] | 0.06 |
| YCDGHSLLYLSKCL (on phage, pIII fusion) [Phage-472] | 0.07 |
| YCEGHLEQYMQKCL (on phage, pIII fusion) [Phage-492] | 0.06 |
| YCDGHELKYMLKCL (on phage, pIII fusion) [Phage-502] | 0.08 |
| YCEGHLAVYMEKCL (on phage, pIII fusion) [Phage-473] | 0.12 |
| YCDGHSAEYLLKCL (on phage, pIII fusion) [Phage-478] | 0.07 |
| YCDGHSAEYLSKCL (on phage, pIII fusion) [Phage-561] | 0.07 |
| YCDGHDVEYMAKCL (on phage, pIII fusion) [Phage-470] | 0.07 |
| YCDGHRVEYMAKCL (on phage, pIII fusion) [Phage-522] | 0.09 |
| YCDGHDVEYMSKCL (on phage, pIII fusion) [Phage-486] | 0.05 |
| YCEGHSSEYMWKCL (on phage, pIII fusion) [Phage-490] | 0.09 |
| YCEGHDLIYMWKCL (on phage, pIII fusion) [Phage-488] | 0.06 |
| YCEGHSLMYMWKCL (on phage, pIII fusion) [Phage-474] | 0.08 |
| YCEGHSLMYMAKCL (on phage, pIII fusion) [Phage-563] | 0.06 |
| YCAGHLAIYMSKCL (on phage, pIII fusion) [Phage-497] | 0.08 |
| YCDGHLDVYRAKCL (on phage, pIII fusion) [Phage-491] | 0.09 |
| YCDGHAQEYRLKCL (on phage, pIII fusion) [Phage-477] | 0.07 |
| YCAGHSPQYMEKCL (on phage, pIII fusion) [Phage-506] | 0.06 |
| YCEGHSIQYMTKCL (on phage, pIII fusion) [Phage-551] | 0.13 |
| YCEGHAPVYMFKCL (on phage, pIII fusion) [Phage-547] | 0.08 |
| YCDGHLPQYLQKCT (on phage, pIII fusion) [Phage-525] | 0.07 |
| YCAGHAAEYMTKCL (on phage, pIII fusion) [Phage-475] | 0.07 |
| YCDGHATEYMQKCL (on phage, pIII fusion) [Phage-484] | 0.1 |
